In PMC8972799:

Molecular target: T1, D-alanyl carrier protein ligase DltA from Staphylococcus aureus Mu50 (S. aureus) (UniProt P68876)
T1 sequence: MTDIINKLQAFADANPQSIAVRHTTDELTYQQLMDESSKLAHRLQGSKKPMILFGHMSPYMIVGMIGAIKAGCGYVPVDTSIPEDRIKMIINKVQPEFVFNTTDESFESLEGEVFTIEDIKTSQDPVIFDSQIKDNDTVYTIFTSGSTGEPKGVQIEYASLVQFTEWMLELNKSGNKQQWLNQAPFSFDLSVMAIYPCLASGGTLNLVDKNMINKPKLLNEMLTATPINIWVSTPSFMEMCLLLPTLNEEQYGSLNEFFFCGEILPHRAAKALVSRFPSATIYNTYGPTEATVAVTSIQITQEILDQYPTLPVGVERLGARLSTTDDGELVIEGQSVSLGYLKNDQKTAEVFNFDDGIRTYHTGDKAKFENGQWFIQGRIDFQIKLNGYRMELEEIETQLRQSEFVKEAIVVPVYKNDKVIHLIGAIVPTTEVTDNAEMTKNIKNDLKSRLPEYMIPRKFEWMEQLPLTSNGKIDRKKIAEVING

B1: wild-type S. aureus DltC, Ppant-modified (natural protein)
chain: MEFREQVLNLLAEVAENDIVKENPDVEIFEEGIIDSFQTVGLLLEIQNKLDIEVSIMDFDRDEWATPNKIVEALEELR
modifications: 4'-phosphopantetheinyl (Ppant) group at Ser36
In the case of B1, the adenylation activity of SaDltA (5 µM; initial rate, pyrophosphate-detection assay, 5 mM D-alanine) in the presence of 300 µM wild-type SaDltC, against SaDltA alone is reported as 7.2 fold.
